Reference: patent publication US20100048412A1

Target: R19-Ava-…-NH2 (2)
Experiment: cell-based or functional assay

- suppression of peptide digestion by 420 nM PSA after addition of the protease inhibitor mix (AEBSF, Aprotinin, Elastatinal, GGACK): > 90%
Substance: prostate-specific antigen (PSA), proteolytically active (from UniProt P07288 25-261) (enzyme)
